The target of experiment [1] is myostatin (R&D Systems) (UniProt O14793). Nature of the experiment: cell-based or functional assay.
In experiment [2] the target is T1, myostatin (R&D Systems) (UniProt O14793 267-375).
T1 sequence (looked up): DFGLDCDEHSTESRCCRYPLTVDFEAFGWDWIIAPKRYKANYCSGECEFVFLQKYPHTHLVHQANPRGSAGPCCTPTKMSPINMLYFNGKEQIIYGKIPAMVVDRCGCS
Nature of the experiment: cell-based or functional assay.

On to “Dual-arm WFIKKN2-G1Fc (from UniProt Q8TEU8 35-576) (Fc fusion)”, for which the IC50 (nM), inhibition of myostatin signaling, pGL3(CAGA)12 reporter gene assay in A204 cells with myostatin (R&D Systems) [1] is over 100 nM.
On the same count and under the same terms, the result for “Single-arm WFIKKN2-G1Fc (from UniProt P0DOX5 209-449) (Fc fusion)” reads 2.9 nM.

B1: Single-chain WFIKKN2-His6 (other)
chain: LPPIRYSHAGICPNDMNPNLWVDAQSTCRRECETDQECETYEKCCPNVCGTKSCVAARYMDVKGKKGPVGMPKEATCDHFMCLQQGSECDIWDGQPVCKCKDRCEKEPSFTCASDGLTYYNRCYMDAEACSKGITLAVVTCRYHFTWPNTSPPPPETTMHPTTASPETPELDMAAPALLNNPVHQSVTMGETVSFLCDVVGRPRPEITWEKQLEDRENVVMRPNHVRGNVVVTNIAQLVIYNAQLQDAGIYTCTARNVAGVLRADFPLSVVRGHQAAATSESSPNGTAFPAAECLKPPDSEDCGEEQTRWHFDAQANNCLTFTFGHCHRNLNHFETYEACMLACMSGPLAACSLPALQGPCKAYAPRWAYNSQTGQCQSFVYGGCEGNGNNFESREACEESCPFPRGNQRCRACKPRQKLVTSFCRSDFVILGRVSELTEEPDSGRALVTVDEVLKDEKMGLKFLGQEPLEVTLLHVDWACPCPNVTVSEMPLIIMGEVDGGMAMLRPDSFVGASSARRVRKLREVMHKKTCDVLKEFLGLHHHHHHH
Turning to B1, in the experiment with myostatin (R&D Systems) [2], the “IC50 (nM), inhibition of myostatin signaling, pGL3(CAGA)12 reporter gene assay in A204 cells” value was determined as 1.4 nM.
